Assay results as given in patent US20220220215A1 (CRESCENDO BIOLOGICS, published 2022).
Numbering of substitutions follows the chain as printed. Names and notes keep the numbering of the source.

B1: TPP-1017: CD137A-6GS-PD138G7(G109D)-6GS-HSA2-His (bispecific antibody)
chain: EVQLVESGGGLVQPGGSLRLSCAASGFTLSNYWMNWVRQAPGKGLEWVANINQDGSERYYVDSVKGRFTISRDNAKNSLYLQMNSLRAEDTAVYYCARGGEGYGVDHYGLDVSGQGTTVTVSSGGGGSGGGGSGGGGSGGGGSGGGGSGGGGSEVQLVESGGGVVRPGGSLRLSCAASGFTFDDYAMSWVRQAPGKGLEWVSGITWNGGSTGYADSVKDRFTISRDNAKNSLYLQMNSLRAEDTALYYCVRDKYSYAWSYDDFDIWGQGTMVTVSSGGGGSGGGGSGGGGSGGGGSGGGGSGGGGSEVQLVESGGGLVKPGGSLRLSCAASGFTFSNYNMNWVRQAPGKGLEWVSSISSAGTHIYYADSVKGRFTISRDNAKNSLYLQMNSLRAEDTAVYYCARDPHSTGWYKDFDYWGQGTLVTVSSAAAHHHHHH
B2: TPP-1016: CD137A-6GS-PDA2-6GS-HSA1-His (bispecific antibody)
chain: EVQLVESGGGLVQPGGSLRLSCAASGFTLSNYWMNWVRQAPGKGLEWVANINQDGSERYYVDSVKGRFTISRDNAKNSLYLQMNSLRAEDTAVYYCARGGEGYGVDHYGLDVSGQGTTVTVSSGGGGSGGGGSGGGGSGGGGSGGGGSGGGGSEVQLVESGGGVVRPGGSLRLSCAASGFTFDDYAMSWVRQAPGKGLEWVSGITWNAGSTGYADSVKGRFTISRDNAKNSLYLQMNSLRAEDTALYYCVRDKYSYAWSYDDFDIWGQGTMVTVSSGGGGSGGGGSGGGGSGGGGSGGGGSGGGGSEVQLVESGGGLVQPGRSLRLSCAASGFTFHHYAMHWVRQAPGKGLEWVSGISWNGNKITYADSVKGRFTISRDNAKNSLYLQMNSLRAEDTALYYCVRDSSLFIVGAPTFEHWGRGTLVTVSSAAAHHHHHH
B3: TPP-1011: PD138G7(G109D)-6GS-HSA3-6GS-CD137D-His (bispecific antibody)
chain: EVQLVESGGGVVRPGGSLRLSCAASGFTFDDYAMSWVRQAPGKGLEWVSGITWNGGSTGYADSVKDRFTISRDNAKNSLYLQMNSLRAEDTALYYCVRDKYSYAWSYDDFDIWGQGTMVTVSSGGGGSGGGGSGGGGSGGGGSGGGGSGGGGSEVQLLESGGGLVKPGGSLRLSCAASGFTVSSYTMNWVRQAPGKGLEWVSSISSSGRYIYYADSVKGRFTISRDNAKNSLYLQMNSLRAEDTAVYYCARDPRMVGNPHEFDIWGQGTMVTVSSGGGGSGGGGSGGGGSGGGGSGGGGSGGGGSEVQLVESGGGVVQPGGSLRLSCAASGFTFSNYGMHWVRQAPGKGLEWVAVISNDGNTKTYADSVKGRFTISRDNSKNTLYLQMNSLRAEDTAVYYCAQDETTTVTASYYFDYWGQGTLVTVSSAAAHHHHHH
B4: TPP-1015: CD137A-6GS-PDA2-6GS-HSA3-His (bispecific antibody)
chain: EVQLVESGGGLVQPGGSLRLSCAASGFTLSNYWMNWVRQAPGKGLEWVANINQDGSERYYVDSVKGRFTISRDNAKNSLYLQMNSLRAEDTAVYYCARGGEGYGVDHYGLDVSGQGTTVTVSSGGGGSGGGGSGGGGSGGGGSGGGGSGGGGSEVQLVESGGGVVRPGGSLRLSCAASGFTFDDYAMSWVRQAPGKGLEWVSGITWNAGSTGYADSVKGRFTISRDNAKNSLYLQMNSLRAEDTALYYCVRDKYSYAWSYDDFDIWGQGTMVTVSSGGGGSGGGGSGGGGSGGGGSGGGGSGGGGSEVQLLESGGGLVKPGGSLRLSCAASGFTVSSYTMNWVRQAPGKGLEWVSSISSSGRYIYYADSVKGRFTISRDNAKNSLYLQMNSLRAEDTAVYYCARDPRMVGNPHEFDIWGQGTMVTVSSAAAHHHHHH
B5: TPP-1018: CD137A-6GS-PD138G7(G109D)-6GS-HSA3-His (bispecific antibody)
chain: B4 chain with A208G, G219D
B6: TPP-984: CD137D-6GS-HSA2-6GS-PDA-His (bispecific antibody)
chain: EVQLVESGGGVVQPGGSLRLSCAASGFTFSNYGMHWVRQAPGKGLEWVAVISNDGNTKTYADSVKGRFTISRDNSKNTLYLQMNSLRAEDTAVYYCAQDETTTVTASYYFDYWGQGTLVTVSSGGGGSGGGGSGGGGSGGGGSGGGGSGGGGSEVQLVESGGGLVKPGGSLRLSCAASGFTFSNYNMNWVRQAPGKGLEWVSSISSAGTHIYYADSVKGRFTISRDNAKNSLYLQMNSLRAEDTAVYYCARDPHSTGWYKDFDYWGQGTLVTVSSGGGGSGGGGSGGGGSGGGGSGGGGSGGGGSEVQLVESGGGLVQPGRSLRLSCAASGFTFDDYALHWVRQAPGKDLEWVSGISWNGGSYGYADSVKGRFTISRDNAKNSLYLQMNSLRAEDTALYYCVREKGPGLTGSTADYYGLDAWGQGTMVTVSSAAAHHHHHH
B7: TPP-1012 PD138G7(G109D)-6GS-HSA1-6GS-CD137D-His (bispecific antibody)
chain: EVQLVESGGGVVRPGGSLRLSCAASGFTFDDYAMSWVRQAPGKGLEWVSGITWNGGSTGYADSVKDRFTISRDNAKNSLYLQMNSLRAEDTALYYCVRDKYSYAWSYDDFDIWGQGTMVTVSSGGGGSGGGGSGGGGSGGGGSGGGGSGGGGSEVQLVESGGGLVQPGRSLRLSCAASGFTFHHYAMHWVRQAPGKGLEWVSGISWNGNKITYADSVKGRFTISRDNAKNSLYLQMNSLRAEDTALYYCVRDSSLFIVGAPTFEHWGRGTLVTVSSGGGGSGGGGSGGGGSGGGGSGGGGSGGGGSEVQLVESGGGVVQPGGSLRLSCAASGFTFSNYGMHWVRQAPGKGLEWVAVISNDGNTKTYADSVKGRFTISRDNSKNTLYLQMNSLRAEDTAVYYCAQDETTTVTASYYFDYWGQGTLVTVSSAAAHHHHHH
B8: TPP-1008: PDA-6GS-HSA3-6GS-CD137D-His (bispecific antibody)
chain: EVQLVESGGGLVQPGRSLRLSCAASGFTFDDYALHWVRQAPGKDLEWVSGISWNGGSYGYADSVKGRFTISRDNAKNSLYLQMNSLRAEDTALYYCVREKGPGLTGSTADYYGLDAWGQGTMVTVSSGGGGSGGGGSGGGGSGGGGSGGGGSGGGGSEVQLLESGGGLVKPGGSLRLSCAASGFTVSSYTMNWVRQAPGKGLEWVSSISSSGRYIYYADSVKGRFTISRDNAKNSLYLQMNSLRAEDTAVYYCARDPRMVGNPHEFDIWGQGTMVTVSSGGGGSGGGGSGGGGSGGGGSGGGGSGGGGSEVQLVESGGGVVQPGGSLRLSCAASGFTFSNYGMHWVRQAPGKGLEWVAVISNDGNTKTYADSVKGRFTISRDNSKNTLYLQMNSLRAEDTAVYYCAQDETTTVTASYYFDYWGQGTLVTVSSAAAHHHHHH
B9: TPP-1009: PDA-6GS-hsa1-6GS-CD137D-His (bispecific antibody)
chain: EVQLVESGGGLVQPGRSLRLSCAASGFTFDDYALHWVRQAPGKDLEWVSGISWNGGSYGYADSVKGRFTISRDNAKNSLYLQMNSLRAEDTALYYCVREKGPGLTGSTADYYGLDAWGQGTMVTVSSGGGGSGGGGSGGGGSGGGGSGGGGSGGGGSEVQLVESGGGLVQPGRSLRLSCAASGFTFHHYAMHWVRQAPGKGLEWVSGISWNGNKITYADSVKGRFTISRDNAKNSLYLQMNSLRAEDTALYYCVRDSSLFIVGAPTFEHWGRGTLVTVSSGGGGSGGGGSGGGGSGGGGSGGGGSGGGGSEVQLVESGGGVVQPGGSLRLSCAASGFTFSNYGMHWVRQAPGKGLEWVAVISNDGNTKTYADSVKGRFTISRDNSKNTLYLQMNSLRAEDTAVYYCAQDETTTVTASYYFDYWGQGTLVTVSSAAAHHHHHH
B10: TPP-1014: CD137A-6GS-PDA-6GS-HSA-His (bispecific antibody)
chain: EVQLVESGGGLVQPGGSLRLSCAASGFTLSNYWMNWVRQAPGKGLEWVANINQDGSERYYVDSVKGRFTISRDNAKNSLYLQMNSLRAEDTAVYYCARGGEGYGVDHYGLDVSGQGTTVTVSSGGGGSGGGGSGGGGSGGGGSGGGGSGGGGSEVQLVESGGGLVQPGRSLRLSCAASGFTFDDYALHWVRQAPGKDLEWVSGISWNGGSYGYADSVKGRFTISRDNAKNSLYLQMNSLRAEDTALYYCVREKGPGLTGSTADYYGLDAWGQGTMVTVSSGGGGSGGGGSGGGGSGGGGSGGGGSGGGGSEVQLVESGGGLVQPGRSLRLSCAASGFTFHHYAMHWVRQAPGKGLEWVSGISWNGNKITYADSVKGRFTISRDNAKNSLYLQMNSLRAEDTALYYCVRDSSLFIVGAPTFEHWGRGTLVTVSSAAAHHHHHH
B11: TPP-983: CD137A-6GS-HSA2-6GS-PDA2-His (bispecific antibody)
chain: EVQLVESGGGLVQPGGSLRLSCAASGFTLSNYWMNWVRQAPGKGLEWVANINQDGSERYYVDSVKGRFTISRDNAKNSLYLQMNSLRAEDTAVYYCARGGEGYGVDHYGLDVSGQGTTVTVSSGGGGSGGGGSGGGGSGGGGSGGGGSGGGGSEVQLVESGGGLVKPGGSLRLSCAASGFTFSNYNMNWVRQAPGKGLEWVSSISSAGTHIYYADSVKGRFTISRDNAKNSLYLQMNSLRAEDTAVYYCARDPHSTGWYKDFDYWGQGTLVTVSSGGGGSGGGGSGGGGSGGGGSGGGGSGGGGSEVQLVESGGGVVRPGGSLRLSCAASGFTFDDYAMSWVRQAPGKGLEWVSGITWNAGSTGYADSVKGRFTISRDNAKNSLYLQMNSLRAEDTALYYCVRDKYSYAWSYDDFDIWGQGTMVTVSSAAAHHHHHH
B12: TPP-985: CD137D-6GS-HSA2-2-6GS-PDA2-His (bispecific antibody)
chain: EVQLVESGGGVVQPGGSLRLSCAASGFTFSNYGMHWVRQAPGKGLEWVAVISNDGNTKTYADSVKGRFTISRDNSKNTLYLQMNSLRAEDTAVYYCAQDETTTVTASYYFDYWGQGTLVTVSSGGGGSGGGGSGGGGSGGGGSGGGGSGGGGSEVQLVESGGGLVKPGGSLRLSCAASGFTFSNYNMNWVRQAPGKGLEWVSSISSAGTHIYYADSVKGRFTISRDNAKNSLYLQMNSLRAEDTAVYYCARDPHSTGWYKDFDYWGQGTLVTVSSGGGGSGGGGSGGGGSGGGGSGGGGSGGGGSEVQLVESGGGVVRPGGSLRLSCAASGFTFDDYAMSWVRQAPGKGLEWVSGITWNAGSTGYADSVKGRFTISRDNAKNSLYLQMNSLRAEDTALYYCVRDKYSYAWSYDDFDIWGQGTMVTVSSAAAHHHHHH

target: human CD137 expressed on cells (Jurkat human CD137 NF-kB luciferase reporter cells; human CD8+ T cells) (human, UniProt Q07011 24-255); test: cell-based or functional assay

Jurkat-CD137/CHO-PD-1 Reporter Assay EC50 | Binder
0.21 nM | B1
0.698 nM | B2
4.11 nM | B3
0.507 nM | B4
0.273 nM | B5
11.8 nM | B6
5.29 nM | B7
3.61 nM | B8
34.7 nM | B9
0.548 nM | B10
0.556 nM | B11
21.7 nM | B12
